Experimental findings from the DeepSol protein solubility set are described below.

This data set is described as follows: soluble on expression in E. coli; label from the status in PepcDB or PDB records.
For the sequence “MASMAAELRPSDGGSSLHMLDSLLMMGLSSGGGVGGGGSSQSQILDSAGAAELAALLLPQHSNDPLHLMSTGDAALGLAGPMAAAEHHQHHPHHQHHSVPATAGFPSQTPPPPLFSNATAGAAPATRVRAAGSCGSGGVAGGTTSHSSEDGVFHSADPHHHHQQHLQQPQPQQQQQQQQQPQHQQQQQQQQQQQPQQPQFHHHQPQQHQAQQAVAATAPAAAADHLFLPPAAAGAAGQQQAGWGAATGAHLFHSDAPNRPNGPKTPTNRNGYAMKPPPPAAAAAVMSGHAMAASGVVAGRGGGGGGCDAEEDELTFAAAAAAEVSSDDEVMGGRGGAVMGRAAVGGFRTPAPAPASAGAAVNVAAAAPAAPAGTWVPKGKPAVEVSAWAPAPAAPVAAAAAAAVAVSPTVAAFAAAPVVEAVALVRSQQRQEQEHQLVQVAAAEQQDQQQAKRPVRSSRRRAQESQQAAAEAQQAAQQAAAAQQQQQHTGSGNIVGDKQGKPQGGLQQGRPVATQPSPPPPAVATAAAAAAATAPVATAPVATVATAATADTMPQRLTAVQQHEAYPAVVRGTLDVRKACLPRFPLVAREQAEAELQSVATAALQQAAAAPGASAAVTAAAAAAAAAATAAGEGKAGEGKAATARRGGRGAAEAEAAAALPAVGASGNPGLDEAMGAYVRVAALYGDEAAAAVAECESLMADFDNKLQLGNLATTFAAAASPTAAASGRARGGARSGGVGGGGTKRVASGANASGANSSGMSGGGGGDSAGAEAAAGDEMEWAPGATSVDTATGGADDEDGEEEEGQQPGGAAAAAAVAAAGGEASQLAASIAATYGSQLVQVAASLAQRPKVGKLPPAATQLLKGWWDDNFVWPYPSEEDKKQLGEAAALNNTQINNWFINQRKRHWHKHFPNRRPPSTREEAERLLRAAGAI”, the “soluble on expression in E. coli” value is reported as “not soluble”.
For “MGSDKIHHHHHHFRSFLMRDREKARKYVLKEIEKFGKRAFTWLFSDVVVEGSENIPKDRNFIVVANHQSLMDIPLILGFVATGAFIAKEELRKIPGVNWYIRYLNGVFLDRKNPRRAVRALREAIEKLKNGVTFIVFPEGTRSPDGKVLSFKKDSLMIAVKTGVPVLPVSIWGTYHLIPKGRWTFTPGKVFLKIHEPVDPKGFSSEEELRKYVEEVVKRGVEELKARWSK” the value was “not soluble”.
Under “MGFLWKTAKLGIKVGLVAGAVKLSIDNDIWSTNNVKGSELYQKLKKYILPGTVVFPEQLPTVEDVQLKAGGKWNSAVDSVFTTIENVPSSVNTVANRLINNK” stands “not soluble”; under “MTVNDKKRLAIIGGGPGGLAAARVFSQSLPNFEIEIFVKDYDIGGVWHYPEQKSDGRVMYDHLETNISKKLMQFSGFPFEENVPLYPSRRNIWEYLKAYYKTFIANKDAISIHFSTEVTYLKKKNSQWEITSKDELRTTKSDFDFVIVASGHYSVPKLPTNIAGLDLWFDNKGAFHSKDFKNCEFAREKVVIVVGNGSSGQDIANQLTTVAKKVYNSIKEPASNQLKAKLIETVQTIDSADWKNRSVTLSDGRVLQNIDYIIFATGYYYSFPFIEPSVRLEVLGEGVTGDKHSSVNLHNLWEHMIYVKDPTLSFILTPQLVIPFPLSELQAAIMVEVFCKSLPITTTFDSNACGTHNFPKERTWNTMQNYRNY”, “soluble”; under “MSLKTQQLLTIGQLAKFSGLHVKALRYYEKIGILNPTAIDKQNGYRYYSYAHIPYVNMIKICANYGLPLKQFTHYILDDGSIDMNAILKEAQLKIEEKERQLQSDERYLRFFSEQINFSQKLDKTTNLHIEQGNKDYFLLPFTGEMLSAKYYEAVRCALAEIEKCQMTFDDRVGCYFKYDDQQVNSFIAIKIKECQEDKTNFLSLCLNHRHIHAQHLTKDRIQPKIKELHQKESINEFLILETFESPYQLSQPHLEMQYVVDNTGEGHHHHHH”, “soluble”.
For “FGYIVELNWKLSKILNCQPEYVYPKLDELLGCLLTKKPLHEYGMKDEEVRGFAESVLKTQQRLLANNYVELTVDEIEGIYRRLY” the value was “not soluble”.
“MAHHHHHHMAVSINSQLKYVVNQAASVEADMNCVERVQHYTSNIEHEDLMEEIDEAIRALEKNDKKRRERKGDPITPAGITHDDDDTSTATVSVPLLEESHASDASPELSYSPADNNNHNDDNGRRENVAAGSLEFRDVTMRYRAGLPHVLCGLTFTIPAGQKVGVIGRTGSGKSSLLLTLLRVVDIEDGQIVLSGRPIRSYSLRALRQLFSMIPQDPLLFNGKVRENLDPLNVCSDAQVREAIRLVGMEDRLAAETDPLQCPVEEGGANFSVGQRQLLCMARTLLRRGCSFILMDEATANVDPTLDKQIQHVVTHVFAGHTVITIAHRLHTLATYDVILMMEEGRVVEMGSPYDLVRSADTRFAQMVRSLGESAMQEFMASTQAPTR”: the “soluble on expression in E. coli” value is recorded as “not soluble”.
Under “MVDIIIAEHAGFCFGVKRAVKLAEESLKESQGKVYTLGPIIHNPQEVNRLKNLGVFPSQGEEFKEGDTVIIRSHGIPPEKEEALRKKGLKVIDATCPYVKAVHEAVCQLTREGYFVVLVGEKNHPEVIGTLGYLRACNGKGIVVETLEDIGEALKHERVGIVAQTTQNEEFFKEVVGEIALWVKEVKVINTICNATSLRQESVKKLAPEVDVMIIIGGKNSGNTRRLYYISKELNPNTYHIETAEELQPEWFRGVKRVGISAGASTPDWIIEQVKSRIQEICEGQLVSSRSHHHHHH” stands “soluble”; under “MATPASGALLQQMNLASQSLNYELSFISINKQGVESLRYRHARLDNRPLAQLLQMDGPRREVVQRGNEISYFEPGLEPFTLNGDYIVDSLPSLIYTDFKRLSPYYDFISVGRTRIADRLCEVIRVVARDGTRYSYIVWMDTESKLPMRVDLLDRDGETLEQFRVIAFNVNQDISSSMQTLAKANLPPLLSVPVGEKAKFSWTPTWLPQGFSEVSSSRRPLPTMDNMPIESRLYSDGLFSFSVNVNRATPSSTDQMLRTGRRTVSTSVRDNAEITIVGELPPQTAKRIAENIKFGAAQHHHHHH”, “soluble”; under “GPGSMKERYDPLPPQLETYLRLIPPTSGAASGKADGDKKTGPRRSDDDPMSFYCTSFLMSREWDVQKAFAMMQEVVAYRAVNHLDEQSHFPPAFSVRGWSTEDVCRALERSPRKVGERIDRVCAGVAQGLICGIHYWDKNGRPVFYMVIDSFDEAELMRQLKQMASVGKSHVDVMWEYMVHVLSVTESLVLYQLIQRGAPLSGRPLTSKTTDEEAPAWDLSEGAVTMVYDMKRLTLKMLWKPIIDMFCDNSKTFFNYYPDRIHRIVCVNSPSLVRYAFLLVRGVLPAAFQRKISFVSPHDTLATLETMIDRKYIPHFLGGDCRCEAHDGECLSGYDPRQTGRTRRTVARTDASSEGNDEAPTVYVKLAAGHECTRVFPVNASEVVVWEFAVEGGGHDIIFTTFFVPQSAASGMQWTQVELSKLSSYMVTSEALAKGSDAFAVAEDGVVVLKWHNRRHWFASKRLQLRAYKEGAPSTLHGQASHPE”, “not soluble”.
For “MGSDKIHHHHHHMLQLPDSPPRMKTLVSVDESYKLCRHLTAKYAKTFYLGTLLMSPVKRQSIWSIYAWCRRTDELVDGPASAITTPETLDLWEQQLESIFAGRPLENYDVALVDTLQRFPMDIQPFRDMIAGQRMDLYRSRYETFEDLYLYCYRVAGTVGLMSTEVMGVDSTLYTAPWHQNKQPYLPTEEAIALGIANQLTNILRDVGEDAKRGRIYIPLEDLEKFNYTEQDFFKGVVDDRWRALMRFQIERARQFYTTSNQGITYLASDARWPVWAASMLYGQILEVIERNDYDVFSRRAFVPQWKKLRTLPLAWMRSQVL” the value was “not soluble”; for “GPGSMERAATQSQSIYSNANTNSSNVNTYGNTVSSYLSNNSPNAVMYGGGNSGNGGAPSSTSVATVYASPTQASPSQAIRQQAQGAAQQNMSQSQTSTSFNAYGGGAASGSGSGFFYSTPSAQAPGAQTMYSANPSAAAMFPMRGGSTSMTPAQPTPTQMLTPQANAAAAAAAVWTNAAANINAGSKLFVGQVPAVCTEDQLRPLFAQFGTLLEIKIMREPNGRSKGSAWVRYELEESAQRAITALNEKHVVPPQTNPLRVQFAAPSTNRIPQPLSALGSIMPPSAVMQPQPQPNYATAATYATPQGYAGTTTAYMQGQYATSPNLMAVRASPQQQAAVQSASGKIEYLRSNHPGSLIYSTASPTAVDAMQQQQQQQSPQQQQVVYTTGGQMRAGVMYTPDAFAMTNQMAAAPQQPHQWCS”, “soluble”.
“GSHMAITGTIAAIATAIVPQQGSVGIVRVSGSQAIAIAQTLFDAPGKQVWESHRILYGYIRHPQTRQIVDEALLLLMKAPRSYTREDVVEFHCHGGIIAVQQVLQLCLESGARLAQPGEFTLRAFLNGRLDLTQAESIADLVGARSPQAAQTALAGLQGKLAHPIRQLRANCLDILAEIEARIDFEEDLPPLDDEAIISDIENIAAEISQLLATKDKGELLRTGLKVAIVGRPNVGKSSLLNAWSQSDRAIVTDLPGTTRDVVESQLVVGGIPVQVLDTAGIRETSDQVEKIGVERSRQAANTADLVLLTIDAATGWTTGDQEIYEQVKHRPLILVMNKIDLVEKQLITSLEYPENITQIVHTAAAQKQGIDSLETAILEIVQTGKVQAADMDLAINQRQAAALTQAKMSLEQVQATITQQLPLDFWTIDLRGAIQALGEITGEEVTESVLDRIFSRFCIGK”: the “soluble on expression in E. coli” value is on record as “soluble”.
For “GPGSMHLDEMLKEIQDMQEKNWTAVERTDIILAKLCAFLDKLAHSLRFMATSQPSCGAGAVCSAGVAVTTHTHGESARGLRISRDIRTAAAGRPFETEVDD” the value was “soluble”; for “MGSDKIHHHHHHMPTVLALETSCDESAAAVLRLNNGCLQVIASRIASQVEKHAQWGGVVPEVASRLHVEALPHLVEEVLQEAGQSMARFDAVAATVTPGLAGALMVGSVTGRSLAALHALPFFGIHHLEGHLASVRLAEHPPRPPYLVLLVSGGHTELIRVGAESEMVRLGRSHDDAAGEAFDKVGRLLGLAYPGGPAIQALAATGDSGRFSLPKGRVSKPGGGFHPYDFSFSGLKTAMLRLVQALSEADEDLPRADLAASFEQVVADVLVERSLLCANDQGLKTVVMVGGVAANRRLRELMSKRGQEQGIEVHTAPLRYCTDNAAMIGAAALQRLVSGVNGSSLELGVAARWPLDKTEVLYHSPPPF”, “not soluble”.
Under “DIISVALKRHSTKAFDASKKLTAEEAEKIKTLLQYSPSSTNSQPWHFIVASTEEGKARVAKSAAGTYVFNERKMLDASHVVVFCAKTAMDDAWLERVVDQEEADGRFNTPEAKAANHKGRTYFADMHRVDLKDDDQWMAKQVYLNVGNFLLGVGAMGLDAVPIEGFDAAILDEEFGLKEKGFTSLVVVPVGHHSVEDFNATLPKSRLPLSTIVTEC” stands “soluble”; under “WPALDDETLLARLELWLEPYLAGVTSVKGLQSVSVLQALKHYLGWELSQQLDEWLPTHHLLPTGNHKKIRYQLGMEPTLSVRMQEVFGEQSSPRVAKGTRAVVMELLSPAQRPLQVTRDLASFWAGAYKEVQKEMKGRYPKHVWPDDP”, “not soluble”; under “QTPVYLDTSKPIEERVKDALSRMTLEEKVKMTHAQSKFSSPGVPRLGIPEVWATDGPHGIRPEVLWDEWDQAGWTNDSCIAYPALTCLSATWNPEMSYLYGKSIGEEARYRKKDILLGPGVNIYRTPLNGRNFEYMGEDPYLSSMMVVPYIKGVQENGVAACVKHYALNNQEFNRHTTNVHLSDRALYEIYLPAFKAAVQEGGAWAIMGAYNLYSFSEDTDSGKLYKTQHACHNKRLLQDILRKEWGFDGVVVSDWGGVHDTFQAISNGLDMEFGSWTNGLSAGTRNAYDNYYLAHPYLKLIQDGTVGTKELDEKVSNILRLIFRTSMNPH”, “not soluble”.
